One substance from PMC9825189 can be followed below.

For the experiment, the target named is Csx30 (purified, for ITC) (Candidatus 'Scalindua brodae'). Put plainly: ITC. On the technique in general: Isothermal titration calorimetry measures the heat released or taken up as one component is titrated into another.

Consider “RpoE (purified, for ITC) (natural protein)”, for which the stoichiometry N (commonly a count of units in the complex or per binding partner) came out at 1.
